Our source for the 抗体效价, OD450 and Ka values is patent CN110616192A.

Assay [1] concerns the target 神经丝轻链(NEFL) (human) (UniProt P07196). Description: indirect ELISA titre, serial two-fold dilution of purified antibody.
Assay [2] has the same target. Description: indirect ELISA, antigen coated at 5 μg/ml, antibody diluted 10^4-fold.
The target is the same in assay [3]. Description: calculated from the indirect ELISA titre.

Chain of UniProt P07196 (P07196 1-360 limits assumed): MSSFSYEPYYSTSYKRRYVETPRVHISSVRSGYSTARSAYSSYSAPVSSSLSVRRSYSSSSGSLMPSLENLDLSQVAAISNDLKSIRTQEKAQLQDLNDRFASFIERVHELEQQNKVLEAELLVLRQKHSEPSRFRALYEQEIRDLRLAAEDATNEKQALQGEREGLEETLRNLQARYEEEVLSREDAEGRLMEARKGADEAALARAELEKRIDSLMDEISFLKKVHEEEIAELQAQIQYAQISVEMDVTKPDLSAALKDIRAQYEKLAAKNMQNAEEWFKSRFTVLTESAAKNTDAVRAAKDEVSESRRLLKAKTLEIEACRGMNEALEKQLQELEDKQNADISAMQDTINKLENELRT

As to 抗NEFL单克隆抗体OTI2F5 (antibody), in assay [1], the 抗体效价 worked out at 1.02e+06. Also, the OD450 in assay [2] is over 1.5 OD450.
In the same order, the values of 抗NEFL单克隆抗体OTI11F8 (antibody) are 512000 and over 1.5 OD450.
In the same order, the values of 抗NEFL单克隆抗体OTI3G2 (antibody) are 512000 and over 1.5 OD450.
For 抗人神经丝轻链(NEFL)单克隆抗体OTI11F6 (antibody), the Ka in assay [3] was 1.4e+09 M⁻¹. This substance showed a 抗体效价 in assay [1] of 1.02e+06. For the same substance, the OD450 in assay [2] was over 1.5 OD450.
